Test results from patent US8889126B2, “Methods and compositions for treating neuropathies” (Washington University, priority 2004, dated 2014).

Key:
[1] = tested on: DRG explant neurons; experiment: in vitro Wallerian degeneration assay: DRG explant cultures, axonal transection by removal of neuronal cell bodies; format: cell-based, mouse; conditions: lentivirus-infected DRG neurons
Method: (§1) To identify the mechanism of delayed axonal degeneration mediated by the Wld^s protein, we employed an in-vitro Wallerian degeneration model. Primary DRG explant neurons were infected with lentivirus expressing the appropriate proteins, and axons were injured by either removal of the neuronal cell body (transection) or growth in vincristine (toxic).
Mouse DRG explants from E12.5 embryos were cultured in the presence of 1 nM nerve growth factor. Non-neuronal cells were removed from the cultures by adding 5-fluorouracil to the culture medium. Transection of neurites was performed at 10-20 DIV using an 18-gauge needle to remove the neuronal cell bodies. […]
Lentiviral expression vectors were generated using HEK293T cells as described above. […] These lysates were analyzed by immunoblot to using anti-His tag monoclonal antibody (Qiagen) to detect expression of the respective hexahistidine-tagged proteins. […]
Quantitative analysis of axonal degeneration was performed as previously described (Zhai, et al., Neuron 39:217-25, 2003). […] Axons with a fragmented, non-refractile appearance were designated as “degenerated.” At each time point, at least 200 singly distinguishable axons were blindly scored from several randomly taken images of each culture. […]
Cell culture, in vitro axotomy, and quantification of axonal degeneration. […] Quantitative analysis of neurite degeneration was performed.

[2] = tested on: DRG neuronal explant; experiment: vincristine-induced axonal degeneration in DRG neuronal explants; format: cell-based, mouse; conditions: 0.5 μM vincristine for up to 9 d, lentiviral expression
Method: as §1
Quantitative analysis of axonal degeneration was performed as previously described (Zhai, et al., Neuron 39:217-25, 2003). Briefly, the cultures were examined using phase contrast microscopy at the indicated times. Axons with a fragmented, non-refractile appearance were designated as “degenerated.” At each time point, at least 200 singly distinguishable axons were blindly scored from several randomly taken images of each culture. […] For calculations of neurite-covered area, digitally captured images from quadruplicate samples of two independent experiments were analyzed using analysis 3.1 software (Soft Imaging System, Lakewood, Colo.).
In addition to mechanical transection, axonal protection in wld^s mice is also observed against other damaging agents such as ischemia and toxins (Coleman, et al., Trends Neurosci 25:532-37, 2002; Gillingwater, et al., J Cereb Blood Flow Metab 24:62-66, 2004). […] FIG. 2C illustrates protein expression in lentivirus-infected cells detected by immunoblot analysis using antibodies to the 6×His tag. […]

[3] = tested on: DRG neurons; experiment: overall cellular NAD levels in DRG neurons by microscale enzymatic assays; format: cell-based; conditions: NMNAT1 expressing vs wild type DRG neurons
Description: Similarly, most enzymes that make up the NAD salvage pathway in yeast are also compartmentalized in the nucleus. […] Furthermore, levels of tissue NAD in the brains of wild type and wld^s mice are similar despite the increased levels of NMNAT activity in wld^s mice (Mack, et al., Nat Neurosci, 4:1199-206, 2001).

| Molecule | axonal degeneration after transection in neurons expressing the construct [1] | axon length and refractility in vincristine [2] | overall cellular NAD levels [3] |
| --- | --- | --- | --- |
| NmPRT: nicotinamide phosphoribosyltransferase, expressed in neurons (protein, UniProt Q99KQ4 1-491, looked up) Nicotinamide …: MNAAAEAEFNILLATDSYKVTHYKQYPPNTSKVYSYFECREKKTENSKVRKVKYEETVFYGLQYILNKYLKGKVVTKEKIQEAKEVYREHFQDDVFNERGWNYILEKYDGHLPIEVKAVPEGSVIPRGNVLFTVENTDPECYWLTNWIETILVQSWYPITVATNSREQKKILAKYLLETSGNLDGLEYKLHDFGYRGVSSQETAGIGASAHLVNFKGTDTVAGIALIKKYYGTKDPVPGYSVPAAEHSTITAWGKDHEKDAFEHIVTQFSSVPVSVVSDSYDIYNACEKIWGEDLRHLIVSRSTEAPLIIRPDSGNPLDTVLKVLDILGKKFPVTENSKGYKLLPPYLRVIQGDGVDINTLQEIVEGMKQKKWSIENVSFGSGGALLQKLTRDLLNCSFKCSYVVTNGLGVNVFKDPVADPNKRSKKGRLSLHRTPAGNFVTLEEGKGDLEEYGHDLLHTVFKNGKVTKSYSFDEVRKNAQLNIEQDVAPH | shows axonal protection | – | – |
| dominant-negative Ufd2a mutant: Ufd2a containing a point mutation (P1140A) that inhibits wild-type Ufd2a function (protein, UniProt Q9ES00 1-1173, looked up, variant P1140A) Ubiquitin conjugation factor …: MEELSADEIRRRRLARLAGGQTSQPTTPLTSPQRENPPGPPIAASAPGPSQSLGLNVHNMTPATSPIGAAGVAHRSQSSEGVSSLSSSPSNSLETQSQSLSRSQSMDIDGVSCEKSMSQVDVDSGIENMEVDENDRREKRSLSDKEPSSGPEVSEEQALQLVCKIFRVSWKDRDRDVIFLSSLSAQFKQNPKEVFSDFKDLIGQILMEVLMMSTQTRDENPFASLTATSQPIATAARSPDRNLMLNTGSSSGTSPMFCNMGSFSTSSLSSLGASGGASNWDSYSDHFTIETCKETDMLNYLIECFDRVGIEEKKAPKMCSQPAVSQLLSNIRSQCISHTALVLQGSLTQPRSLQQPSFLVPYMLCRNLPYGFIQELVRTTHQDEEVFKQIFIPILQGLALAAKECSLESDYFKYPLMALGELCETKFGKTHPMCNLVASLPLWLPKSLSPGSGRELQRLSYLGAFFSFSVFAEDDAKVVEKYFSGPAITLENTRVVSQSLQHYLELGRQELFKILHSILLNGETREAALSYMAALVNANMKKAQMQADDRLVSTDGFMLNLLWVLQQLSTKIKLETVDPTYIFHPRCRITLPNDETRINATMEDVNERLTELYGDQPPFSEPKFPTECFFLTLHAHHLSILPSCRRYIRRLRAIRELNRTVEDLKNNESQWKDSPLATRHREMLKRCKTQLKKLVRCKACADAGLLDESFLRRCLNFYGLLIQLMLRILDPAYPDVTLPLNSEVPKVFAALPEFYVEDVAEFLFFIVQYSPQVLYEPCTQDIVMFLVVMLCNQNYIRNPYLVAKLVEVMFMTNPSVQPRTQKFFEMIENHPLSTKLLVPSLMKFYTDVEHTGATSEFYDKFTIRYHISTIFKSLWQNIAHHGTFMEEFNSGKQFVRYINMLINDTTFLLDESLESLKRIHEVQEEMKNKEQWDQLPRDQQQARQSQLAQDERVSRSYLALATETVDMFHLLTKQVQKPFLRPELGPRLAAMLNFNLQQLCGPKCRDLKVENPEKYGFEPKKLLDQLTDIYLQLDCARFAKAIADDQRSYSKELFEEVISKMRKAGIKSTIAIEKFKLLAEKVEEIVAKNARAEIDYSDAPDEFRDPLMDTLMTDPVRLPSGTVMDRSIILRHLLNSPTDAFNRQMLTESMLEPVPELKEQIQAWMREKQSSDH | neither of these methods resulted in delayed axonal degradation | – | – |
| NMNAT1: nicotinamide mononucleotide adenylyltransferase1, murine, lentivirally expressed (protein, UniProt Q9EPA7 1-285, looked up, lentivirally expressed) Nicotinamide/nicotinic acid …: MDSSKKTEVVLLACGSFNPITNMHLRLFELAKDYMHATGKYSVIKGIISPVGDAYKKKGLIPAHHRIIMAELATKNSHWVEVDTWESLQKEWVETVKVLRYHQEKLATGSCSYPQSSPALEKPGRKRKWADQKQDSSPQKPQEPKPTGVPKVKLLCGADLLESFSVPNLWKMEDITQIVANFGLICITRAGSDAQKFIYESDVLWRHQSNIHLVNEWITNDISSTKIRRALRRGQSIRYLVPDLVQEYIEKHELYNTESEGRNAGVTLAPLQRNAAEAKHNHSTL | – | maintained their original length and refractility | no changes in overall cellular NAD levels were found |
